Experiments:
HMEC = test: cell viability assay, HMEC; type: cell-based; parameters: key: +: growth inhibition; −: no or weak effect; conditions: Human Mammary Epithelial Cell
Protocol: (§1) The different cell lines were cultured in their respective culture media at 37° C. in a humidified atmosphere of 5% CO2. Subsequently, cells were detached from tissue-culture flasks using the cell-dissociation solution, TRIPLE SELECT™ solution (InVitrogen, Carlsbad, Calif., USA), and centrifuged at 1000 rpm for five minutes. Detached cells were washed once with PBS, counted, and seeded in 96-well plates (Corning, N.Y., USA) at 2000 cells per well in 100 μL of culture media. After an overnight incubation at 37° C. in a humidified atmosphere of 5% CO2, the cell-culture medium was replaced with 50 μL of starvation medium consisting of serum-free RPMI 1640™ medium without phenol red. The cells were then starved for five hours in the incubator before addition of 25 μL of each anti-IGF-1R monoclonal antibody at various dilutions in serum-free RPMI 1640™ phenol red-free media. Later, 25 μL of phenol red-free RPMI 1640™ media supplemented with 4% of fetal bovine serum (FBS) (Sigma) with or without 4 ng/ml of human recombinant IGF-I were added on top of the 50 μL of antibody. The cells were then placed at 37° C. with 5% CO2 for 5 to 6 days. At the end of the assay, cell viability was measured using the […]-GLO® kit according to the manufacturer's instructions (Promega, Madison, Wis., USA).

HT29 = test: cell viability assay, HT29; type: cell-based, human; parameters: key: +: growth inhibition; −: no or weak effect; conditions: HT29, Colorectal Adenocarcinoma
Protocol: as §1

HCT15 = test: cell viability assay, HCT15; type: cell-based, human; parameters: key: +: growth inhibition; −: no or weak effect; conditions: HCT15, Colorectal Adenocarcinoma
Protocol: as §1

human IGF-1R-ECD = target: T1, human IGF-1R-ECD (Homo sapiens, UniProt P08069); test: competitive ELISA, blocking of IGF-I/II and IGF-1R interaction; type: binding; conditions: antibody 100 nM to 0.0976 nM, biotinyl-IGF-I or IGF-II 60 ng/ml
T1 construct: containing the extracellular domain (ECD, amino acids 1-902) tagged with 10 or 12 histidine residues at the carboxyl terminus; His10 or His12 (C); made in house; host or cells: CHO cells
Protocol: To determine whether the anti-IGF-1R antibodies could block ligand/receptor interaction, competitive ELISA was utilized. Human IGF-1R-ECD was coated overnight at 4° C. at 1 μg/ml in a 96-well immunoplate (Nalge Nunc International, Rochester, N.Y., USA). The ELISA plate was washed with wash buffer (PBS, 0.05% TWEEN™ 20 surfactant, pH 7.4), and 150 μl/well of blocking buffer (PBS with 0.5% BSA) was added for one hour at room temperature with gentle agitation. Purified anti-IGF-1R antibodies were first subjected to a two-fold dilution from 100 nM to 0.0976 nM in assay buffer (PBS, 0.5% BSA and 0.05% TWEEN™ 20 surfactant, pH 7.4) and added to the immunoplate to incubate at room temperature for one hour. Biothinyl-IGF-I or IGF-II at 60 ng/ml concentrations (Cell Science, Canton, Mass., USA) was then added and incubated for another 30 minutes. The ELISA plate was washed three times, and 100 μl/well of streptavidin-HRP (GE Healthcare, Piscataway, N.J., USA) at a dilution of 1:6,000 was added for 20 minutes. Color development was conducted as described in conjunction with the direct ELISA. The selected anti-IGF-1R antibodies inhibited IGF-I or IGF-II binding to IGF-1R to various degrees (FIGS. 19A and 19B for IGF-I and IGF-II, respectively).

B1: 9F2: mouse monoclonal anti-IGF-1R antibody from hybridoma 9F2.6.2, ATCC PTA-7018 (antibody, V domains shown)
VH: QIQLVQSGPELKKPGETVKISCKASGYTLANYGMNWVKQAPGKGFKWMGWINTNTGKPTYSDEFKGRFVFSLETSASTAYLLINNLSNEDTATYFCARSIYYYGSRYFNVWGAGTT
VL: DIQMTQSTSSLSASLGDRVTISCRASQDINNYLTWYQQKPDGTVKLLIYYTSRLHSGVPSRFSGSGSGTDYSLTITNLEQEDFATYFCQQGNTLPWTFGEGTKVEIKR
Effect of IR3, 6D2, 9F2, and 10H5 (HMEC): −
Effect of IR3, 6D2, 9F2, and 10H5 (HT29): +
Effect of IR3, 6D2, 9F2, and 10H5 (HCT15): −
inhibition of IGF-I or IGF-II binding to IGF-1R (human IGF-1R-ECD): most potent group

B2: 10H5: mouse monoclonal anti-IGF-1R antibody from hybridoma 10H5.3.4, ATCC PTA-7007 (antibody, V domains shown)
VH: QVQLQQPGAELVKPGASVTLSCKASGYTFTRFWIHWVKQRPGQGLEWIGEINPSNGRTNYNENFKNKATLTVDTSSSTAYMQLSSLTSEVSVVYYCARGGRLDQWGQGTT
VL: DIVMTQSQKFMSTSLGDRVSVTCKASQNVGSNVAWYQQKPGQSPEALIYSASYRYSGVPDRFTGSGSGTDFTLTISNVQSEDLAEYFCHQYNNYPYTFGGGTKVEIKR
Effect of IR3, 6D2, 9F2, and 10H5 (HMEC): −
Effect of IR3, 6D2, 9F2, and 10H5 (HT29): +
Effect of IR3, 6D2, 9F2, and 10H5 (HCT15): −
inhibition of IGF-I or IGF-II binding to IGF-1R (human IGF-1R-ECD): most potent group

Source: patent US20090068110A1, “ANTIBODIES TO INSULIN-LIKE GROWTH FACTOR RECEPTOR” (Genentech, Inc., priority 2006, published 2009)
